Results reported in article PMC12548384.

Experiments:
[1] = target: T1, CmrR (Clostridioides difficile R20291) (UniProt A0A9R0CG09); test: EMSA; conditions: EMSA: 15 nM probe, 1x binding buffer 20 mM Tris pH 8, 1 mM EDTA, 10 mM MgCl2, 100 mM NaCl, 5% glycerol, plus half volume protein in His6 buffer (10 mM Tris …)
T1 sequence: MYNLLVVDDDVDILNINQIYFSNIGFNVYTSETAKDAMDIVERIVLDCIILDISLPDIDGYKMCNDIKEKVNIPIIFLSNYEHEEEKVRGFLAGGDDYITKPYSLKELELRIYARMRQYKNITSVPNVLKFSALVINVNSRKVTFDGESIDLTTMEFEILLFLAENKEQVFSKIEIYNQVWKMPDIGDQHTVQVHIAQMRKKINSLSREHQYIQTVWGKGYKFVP

[2] = target: CmrT fused to the smbit or lgbit portion of split luciferase (C. difficile two-hybrid) (Clostridioides difficile R20291); test: split reporter (BiFC, NanoBiT); C. difficile bacterial two-hybrid with split luciferase (smbit, lgbit) from one ATc-inducible transcript; 200 ng/mL ATc for 1 h in BHIS-Tm10; Nano-Glo reagent; luminescence per OD600
[3] = target: CmrT-D9A fused to the smbit or lgbit portion of split luciferase (C. difficile two-hybrid) (Clostridioides difficile R20291); test: as above
[4] = target: CmrT-K102A fused to the smbit or lgbit portion of split luciferase (C. difficile two-hybrid) (Clostridioides difficile R20291); test: as above

Substance | binding [1] | also measured
ATTCAAGAATTGTTCAAAAATACTTAAGTATTATAGTCTAGTTTGTAAAGATATTATAAAATAATAATACTAGTTATATATGAAAATAAAACATTATAATTTGTAATAATTATAAAACTTGAGATTATGATTAAAATACCTTTGAATGGAGTGGTGTAATGTATAATTTACTGGTTGTAGATGATGATGTTG (double strand) [probe 4 (TSS4, 192 bp)] | binds more weakly | 
CTAGCCAATAGACAAGTTTCTAGAAAAATAATAAATTTATAAGTGAAAATGACTTTAAGCTCCATTCTCCAACAATCGGAGACTTTAATTAGTATTTAATAATAAATCTTAATGTTCAATACAATATTCAAGAATTGTTCAAAAATACTTAAG (double strand) [probe 9 (cmr switch in other orientation than probe 6)] | binds | 
CmrT fused to the smbit or lgbit portion of split luciferase (C. difficile two-hybrid) (natural protein) |  | log10 fold luciferase activity over the negative control [2]: 3.6 log10 fold
CmrT-D9A fused to the smbit or lgbit portion of split luciferase (C. difficile two-hybrid) (natural protein) |  | log10 fold change of luciferase signal against wild-type CmrT (log10 fold change) [3]: -1.27
CmrT-K102A fused to the smbit or lgbit portion of split luciferase (C. difficile two-hybrid) (natural protein) |  | log10 fold change of luciferase signal against wild-type CmrT (log10 fold change) [4]: -0.64
GCCAAAATTTCACCTATCAATAAAAATCTTAACGACTAATACTCTTATTTTCAAATTTTGCAACATTTTTGTTAATTTTAAAGCAAAAAAAGACTATGCAATATAAAAATTATATTCATAGCCGGTTGCACCACTAACTCCATATATCTCC (double strand) [probe 2] | no binding | 
GTATTTAATAATAAATCTTAATGTTCAATACAATATTCAAGAATTGTTCAAAAATACTTAAGTATTATAGTCTAGTTTGTAAAGATATTATAAAATAATAATACTAGTTATATATGAAAATAAAACATTATAATTTGTAATAATTATAAAACTTGAGATTATGATTAAAATACCTTTGAATGGAGTGGTGTAATGTATAATTTACTGGTTGTAGATGATGATGTTG (double strand) [probe 7 (TSS4, 226 bp)] | binds | 
TTGCACCACTAACTCCATATATCTCCAGATGCCCAATAATAAGATATACTTCTCAGTTTCTAAAATATTTTTATTAAAAATCTTTTATATATTTTCATAAATTTCTTTTTTATTCTAACATTGTAATATTATTTTGTCAATATTTCCATATTTTTAGATATAAGATACTAAAATACCTATTTTATCTAAAGATATTTATATTTCTACATTCAATAATAGACAATACCCTGCAAGTTAAAGCATC (double strand) [probe 1 (upstream of TSS1)] | no binding | 
